# From paper PMC6021170
# Positions count from the first letter of the chain named. Names may count otherwise.
# B1: calnexin (natural protein)
# chain: HDGHDDDVIDIEDDLDDVIEEVEDSKPDTTAPPSSPKVTYKAPVPTGEVYFADSFDRGTLSGWILSKAKKDDTDDEIAKYDGKWEVEEMKESKLPGDKGLVLMSRAKHHAISAKLNKPFLFDTKPLIVQYEVNFQNGIECGGAYVKLLSKTPELNLDQFHDKTPYTIMFGPDKCGEDYKLHFIFRHKNPKTGIYEEKHAKRPDADLKTYFTDKKTHLYTLILNPDNSFEILVDQSVVNSGNLLNDMTPPVNPSREIEDPEDRKPEDWDERPKIPDPEAVKPDDWDEDAPAKIPDEEATKPEGWLDDEPEYVPDPDAEKPEDWDEDMDGEWEAPQIANPRCESAPGCGVWQRPVIDNPNYKGKWKPPMIDNPSYQGIWKPRKIPNPDFFEDLEPFRMTPFSAIGLELWSMTSDIFFDNFIICADRRIVDDWANDGWGLKKAADGAAEPGVVGQMIEAAEERPWLWVVYILTVALPVFLVILFCCSGKKQTSGMEYKKTDAPQPDVKEEEEEKEEEKDKGDEEEEGEEKLEEKQKSDAEEDGGTVSQEEEDRKPKAEEDEILNRSPRNRKPRRE
# B2: corin: N1022Q (protein)
# parent chain: MKQSPALAPEERCRRAGSPKPVLRADDNNMGNGCSQKLATANLLRFLLLVLIPCICALVLLLVILLSYVGTLQKVYFKSNGSEPLVTDGEIQGSDVILTNTIYNQSTVVSTAHPDQHVPAWTTDASLPGDQSHRNTSACMNITHSQCQMLPYHATLTPLLSVVRNMEMEKFLKFFTYLHRLSCYQHIMLFGCTLAFPECIIDGDDSHGLLPCRSFCEAAKEGCESVLGMVNYSWPDFLRCSQFRNQTESSNVSRICFSPQQENGKQLLCGRGENFLCASGICIPGKLQCNGYNDCDDWSDEAHCNCSENLFHCHTGKCLNYSLVCDGYDDCGDLSDEQNCDCNPTTEHRCGDGRCIAMEWVCDGDHDCVDKSDEVNCSCHSQGLVECRNGQCIPSTFQCDGDEDCKDGSDEENCSVIQTSCQEGDQRCLYNPCLDSCGGSSLCDPNNSLNNCSQCEPITLELCMNLPYNSTSYPNYFGHRTQKEASISWESSLFPALVQTNCYKYLMFFSCTILVPKCDVNTGEHIPPCRALCEHSKERCESVLGIVGLQWPEDTDCSQFPEENSDNQTCLMPDEYVEECSPSHFKCRSGQCVLASRRCDGQADCDDDSDEENCGCKERDLWECPSNKQCLKHTVICDGFPDCPDYMDEKNCSFCQDDELECANHACVSRDLWCDGEADCSDSSDEWDCVTLSINVNSSSFLMVHRAATEHHVCADGWQEILSQLACKQMGLGEPSVTKLIQEQEKEPRWLTLHSNWESLNGTTLHELLVNGQSCESRSKISLLCTKQDCGRRPAARMNKRILGGRTSRPGRWPWQCSLQSEPSGHICGCVLIAKKWVLTVAHCFEGRENAAVWKVVLGINNLDHPSVFMQTRFVKTIILHPRYSRAVVDYDISIVELSEDISETGYVRPVCLPNPEQWLEPDTYCYITGWGHMGNKMPFKLQEGEVRIISLEHCQSYFDMKTITTRMICAGYESGTVDSCMGDSGGPLVCEKPGGRWTLFGLTSWGSVCFSKVLGPGVYSNVSYFVEWIKRQIYIQTFLLN
# B3: corin: R801A/N1022Q (protein)
# parent chain: B2 parent chain with R801A
# B4: corin: sN1022Q (protein)
# parent chain: B2 parent chain
# B5: corin: sR801A/N1022Q (protein)
# parent chain: B2 parent chain
# What was measured:
# [1] = western blot of cell lysates, HEK293; conditions: glycan lost; control: PT-WT
# [2] = western blot of conditioned medium, HEK293; conditions: glycan lost; control: PT-WT
# [3] = ELISA of conditioned medium, endogenous prothrombin, HepG2; conditions: glycan changed form; control: untreated HepG2 cells
# [4] = ELISA of cell lysates, endogenous prothrombin, HepG2; conditions: glycan changed form; control: untreated HepG2 cells
# [5] = biological target: enteropeptidase mutant EK-4Q (human) (UniProt P00734); test: co-IP; lysates of transfected HEK293 cells immunoprecipitated with anti-V5 antibody and protein A-Sepharose; co-precipitated endogenous chaperones detected by western blotting and densitometry; cells without or with DNJ (2 mM, 37°C, 24-48 hr)
# [6] = biological target: prothrombin mutant PT-N416Q (human) (UniProt P98073); test: as above
# [7] = Endo H sensitive/resistant band ratio after 4 hr CHX; conditions: glycan lost; control: WT corin
# [8] = confocal co-staining with or without CHX; conditions: glycan lost; control: WT corin
# [9] = cycloheximide chase, lysate western blot; conditions: glycan lost; control: WT corin
# [10] = confocal co-staining after 4 hr CHX; conditions: glycan lost; control: WT corin
# [11] = western blot, cleaved Corin-p band in lysate; conditions: glycan lost; control: WT corin
# [12] = cell surface biotinylation, western blot densitometry; conditions: glycan lost
# [13] = western blot of cell lysates, zymogen bands; conditions: glycan lost
# [14] = western blot of conditioned medium; conditions: glycan lost
# [15] = western blot of cell lysates; conditions: glycan lost
# [16] = control: sR801A (soluble corin)
# Sequence of UniProt P98073 (P98073 whole entry, stated change not applied): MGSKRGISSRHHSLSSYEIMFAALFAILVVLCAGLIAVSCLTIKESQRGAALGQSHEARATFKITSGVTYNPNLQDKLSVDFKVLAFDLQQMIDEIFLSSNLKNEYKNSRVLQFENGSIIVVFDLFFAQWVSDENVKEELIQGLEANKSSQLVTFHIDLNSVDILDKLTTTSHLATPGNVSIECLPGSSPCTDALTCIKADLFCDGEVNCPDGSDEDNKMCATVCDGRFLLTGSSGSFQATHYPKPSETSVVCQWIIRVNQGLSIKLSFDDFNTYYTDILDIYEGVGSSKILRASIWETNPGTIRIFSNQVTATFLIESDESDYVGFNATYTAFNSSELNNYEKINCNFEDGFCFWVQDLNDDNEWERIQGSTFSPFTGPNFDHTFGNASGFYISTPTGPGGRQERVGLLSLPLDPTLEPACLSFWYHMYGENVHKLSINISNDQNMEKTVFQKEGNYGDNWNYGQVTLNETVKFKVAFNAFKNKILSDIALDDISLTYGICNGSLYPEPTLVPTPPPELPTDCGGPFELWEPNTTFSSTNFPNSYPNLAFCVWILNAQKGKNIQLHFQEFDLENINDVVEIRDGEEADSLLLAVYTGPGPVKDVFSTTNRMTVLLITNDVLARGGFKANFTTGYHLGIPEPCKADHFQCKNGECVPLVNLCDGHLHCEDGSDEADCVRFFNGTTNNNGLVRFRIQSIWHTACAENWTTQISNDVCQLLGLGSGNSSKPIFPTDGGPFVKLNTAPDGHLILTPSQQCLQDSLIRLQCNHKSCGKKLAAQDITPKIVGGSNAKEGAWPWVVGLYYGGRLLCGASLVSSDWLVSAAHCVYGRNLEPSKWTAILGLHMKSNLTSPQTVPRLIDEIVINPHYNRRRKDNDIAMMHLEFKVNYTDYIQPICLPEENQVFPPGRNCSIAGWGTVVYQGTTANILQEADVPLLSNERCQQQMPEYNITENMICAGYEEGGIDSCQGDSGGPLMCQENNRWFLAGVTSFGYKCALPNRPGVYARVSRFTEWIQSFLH
molecule,measurement,setting,value
prothrombin (PT): PT-N416Q,expression_or_secretion,[1],no change
same,"expression_or_secretion, percent_of_wt",[2],decreases
prothrombin (PT): DNJ,"expression_or_secretion, percent_of_wt",[3],decreases
same,expression_or_secretion,[4],no change
B1,"co-precipitated level, percent of that with EK-WT",[5],165%
same,"co-precipitated level, percent of that with PT-WT",[6],171%
B2,localisation_or_trafficking,[7],changes
same,localisation_or_trafficking,[8],no change
same,"degradation_or_half_life, half_life",[9],"increases, 6.1 ± 0.3 vs 3.8 ± 0.4"
same,"localisation_or_trafficking, other: Pearson's correlation coefficient",[10],"increases, 0.35 ± 0.05 vs 0.15 ± 0.06"
same,other: proteolytic processing,[11],decreases
same,"expression_or_secretion, percent_of_wt",[12]; control: WT corin,decreases
same,expression_or_secretion,[13]; control: WT corin,no change
B3,"expression_or_secretion, percent_of_wt",[12]; control: R801A corin,decreases
same,expression_or_secretion,[13]; control: R801A corin,no change
B4,"expression_or_secretion, percent_of_wt",[14]; control: sWT (soluble corin),decreases
same,expression_or_secretion,[15]; control: sWT (soluble corin),no change
B5,"expression_or_secretion, percent_of_wt",[14]; [16],decreases
same,expression_or_secretion,[15]; [16],no change
